Series [1] concerns the target T1, Sox9 (recombinant, rSox9) (UniProt Q04887 Q04887:1-507). The series can be described thus: EMSA; both sides mutated; shift disappeared. The following applies: label: 32P. As for the experimental part: (§1) To a reaction solution containing 20 mmol/L of HEPES (pH 7.9), 10% of glycerol, 50 mmol/L of KCl, 0.05% of NP-40, 0.5 mmol/L of EDTA, 0.5 mmol/L of DTT, 1 mmol/L of PMSF and 0.25 μg of Poly dG-dC was/were appropriately added 0.1 μg of a recombinant Sox9 (rSox9) and/or an anti-Sox9 antibody (manufactured by Millipore Corporation) followed by incubating at room temperature for 30 minutes. After that, the above RI-labeled probe was added, incubated at room temperature for 30 minutes and subjected to 4% polyacrylamide gel electrophoresis. After the electrophoresis, RI was detected using FLA-7000 (manufactured by Fujifilm) which is an image analysis apparatus.
(In general: A gel shift assay detects complexes by their altered migration in electrophoresis.)

The target of the next series is T2, recombinant Sox9 (rSox9) (Homo sapiens, UniProt P48436).
T2 sequence (P48436 1-509): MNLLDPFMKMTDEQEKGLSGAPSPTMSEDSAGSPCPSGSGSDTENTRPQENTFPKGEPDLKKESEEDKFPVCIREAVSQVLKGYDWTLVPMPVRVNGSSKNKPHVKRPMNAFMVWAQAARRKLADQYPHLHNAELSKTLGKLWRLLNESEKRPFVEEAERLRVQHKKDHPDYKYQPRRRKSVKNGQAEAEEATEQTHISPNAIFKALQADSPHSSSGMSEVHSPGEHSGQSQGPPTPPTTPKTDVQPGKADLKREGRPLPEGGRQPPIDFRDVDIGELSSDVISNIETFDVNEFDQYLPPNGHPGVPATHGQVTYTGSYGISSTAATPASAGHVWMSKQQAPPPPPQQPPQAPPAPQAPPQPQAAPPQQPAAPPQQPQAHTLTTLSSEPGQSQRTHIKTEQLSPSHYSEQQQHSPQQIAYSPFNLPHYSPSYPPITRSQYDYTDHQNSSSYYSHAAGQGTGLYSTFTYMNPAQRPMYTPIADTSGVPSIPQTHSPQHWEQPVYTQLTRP
The series can be described thus: Electrophoretic mobility shift assay (EMSA), Sox9 binding of RI-labeled probes. The note with it: for shift of the band: incubation with rSox9. As for the experimental part:
To a reaction solution comprising 1× Protruding End Kinase buffer, 0.4 μmol/L of sense oligo or antisense oligo and 1 U of T4 Polynucleotide Kinase (manufactured by Toyobo Co., Ltd.) was added P^32 γATP followed by subjecting to a reaction at 37° C. for 1 hour. The sense oligo and the antisense oligo finishing each of their reactions were mixed, incubated at 99° C. for 10 seconds and gradually returned to room temperature during 1 hour to prepare a double-stranded DNA labeled with radioisotope (RI). The RI-labeled probe was used after purifying by PrbeQuant G-50 Micro Column.
as §1

The target of series [2] is T1, Sox9 (recombinant, rSox9). The series can be described thus: EMSA; 0.1 ug rSox9, poly dG-dC, 50 mM KCl, room temperature; supershift with anti-Sox9. The following applies: label: 32P. As for the experimental part: as §1
The target in series [3] is T1, Sox9 (recombinant, rSox9). The series can be described thus: EMSA; right-side half-site mutated; shift disappeared. The following applies: label: 32P. How it is done:
as §1

The target of series [4] is T1, Sox9 (recombinant, rSox9). Description: EMSA; left-side half-site mutated; shift still observed. The following applies: label: 32P. How it is done: as §1

The record followed here is patent publication US20150056630A1, “DNA CONTROLLING MIR-140 EXPRESSION, AND SCREENING METHOD OF DRUGS USING SAID DNA” (NATIONAL CENTER FOR CHILD HEALTH AND DEVELOPMENT, priority 2012, published 2015).

Positions count from the first letter of the chain named.

B1: miR140-PSB-mut3 probe (dsDNA)
DNA 1: CTGGGTTGGGCCCCAGGCATCGTCCTGCTGCT
DNA 2: AGCAGCAGGACGATGCCTGGGGCCCAACCCAG
As for B1, the binding result in series [1] was “no binding”.

B2: miR-140-PSB-mut3: RI-labeled probe, SEQ ID Nos. 34/35, mutation in both sides of the palindromic Sox9 binding sequence (nucleic acid)
chain 1: B1 DNA 1
chain 2: B1 DNA 2
modifications: DNA, backbone and methylation of C not given here; radioisotope-labeled double-stranded DNA probe, further chemistry not fully specified
For B2, in the series with recombinant Sox9 (rSox9), the “shift of the band” value is “shift of the band disappeared”.

B3: miR140-PSB probe (dsDNA)
DNA 1: CTGGACTGAGCCCCATTCATCGTCCTGCTGCT
DNA 2: AGCAGCAGGACGATGAATGGGGCTCAGTCCAG
As to B3, the binding result in series [2] is on record as “binds”.

B4: miR-140-PSB: RI-labeled double-stranded DNA probe, SEQ ID Nos. 28/29, palindromic Sox9 binding sequence (Table 3: miR140-PSB) (nucleic acid)
chain 1: B3 DNA 1
chain 2: B3 DNA 2
modifications: DNA, backbone and methylation of C not given here; radioisotope-labeled double-stranded DNA probe, further chemistry not fully specified
Turning to B4, the “shift of the band” value in the series with recombinant Sox9 (rSox9) is reported as “shift of the band was observed”. Further, the “supershift of the band” value with recombinant Sox9 (rSox9) (rSox9 and further incubation with anti-Sox9 antibody) is listed as “supershift of the band was observed”.

B5: miR-140-PSB-mut1: RI-labeled probe, SEQ ID Nos. 30/31, mutation in the right side of the palindromic Sox9 binding sequence (nucleic acid)
chain 1: B3 DNA 1 with T16G, T17G
chain 2: B3 DNA 2 with A16C, A17C
modifications: DNA, backbone and methylation of C not given here; radioisotope-labeled double-stranded DNA probe, further chemistry not fully specified
Consider B5, for which the “shift of the band” value in the series with recombinant Sox9 (rSox9) was “shift of the band disappeared”.

B6: miR-140-PSB-mut2: RI-labeled probe, SEQ ID Nos. 32/33, mutation in the left side of the palindromic Sox9 binding sequence (nucleic acid)
chain 1: B1 DNA 1 with G16T, G17T
chain 2: B1 DNA 2 with C16A, C17A
modifications: DNA, backbone and methylation of C not given here; radioisotope-labeled double-stranded DNA probe, further chemistry not fully specified
As to B6, the “shift of the band” value with recombinant Sox9 (rSox9) is “shift of the band was observed”.

B7: miR140-PSB-mut1 probe (dsDNA)
DNA 1: B3 DNA 1 with T16G, T17G
DNA 2: B3 DNA 2 with A16C, A17C
Regarding B7, in series [3], the binding result is “no binding”.

B8: miR140-PSB-mut2 probe (dsDNA)
DNA 1: B1 DNA 1 with G16T, G17T
DNA 2: B1 DNA 2 with C16A, C17A
On to B8, for which the binding result in series [4] is “binds”.
